Results on 8 molecules are retold here after patent publication US20240368302A1 (NANOMAB TECHNOLOGY, published 2024).

Numbering of substitutions follows the chain as printed.

The target of test [1] is T1, mouse TROP2-Fc antigen protein (mouse, UniProt Q8BGV3 25-270, limits assumed).
T1 construct: not shown: Fc
T1 sequence (looked up): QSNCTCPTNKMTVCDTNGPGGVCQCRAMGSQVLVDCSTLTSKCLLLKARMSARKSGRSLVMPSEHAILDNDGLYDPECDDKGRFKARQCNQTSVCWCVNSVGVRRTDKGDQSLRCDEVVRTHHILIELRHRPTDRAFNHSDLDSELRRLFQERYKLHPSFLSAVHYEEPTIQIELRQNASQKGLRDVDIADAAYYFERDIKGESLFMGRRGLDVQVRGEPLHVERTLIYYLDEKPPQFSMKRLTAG
Put plainly: ELISA, plate coated with mouse TROP2-Fc. On the technique in general: An ELISA detects its analyte on a solid surface through an enzyme-linked reagent.

Test [2] addresses T2, human TROP2-Fc protein antigen (human, UniProt P09758 27-274).
T2 construct: extracellular domain; also called CRD + TY-1 + CPD; not shown: IgG Fc of the pFUSE-IgG plasmid
T2 sequence (looked up): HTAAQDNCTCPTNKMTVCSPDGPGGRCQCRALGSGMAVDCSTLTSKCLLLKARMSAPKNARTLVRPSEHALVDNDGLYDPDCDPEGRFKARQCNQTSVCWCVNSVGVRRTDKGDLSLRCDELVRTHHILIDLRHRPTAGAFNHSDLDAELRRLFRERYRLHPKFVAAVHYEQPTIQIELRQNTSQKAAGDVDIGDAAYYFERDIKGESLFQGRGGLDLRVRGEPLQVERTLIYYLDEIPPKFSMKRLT
The test can be described thus: SPR (Biacore 8K), human TROP2-Fc on CM-5 chip, VHH in flow. How it is done: The fixed phase human TROP2-Fc antigen proteins were fixed on the surface of CM-5 sensing chip using carboxyl amino reaction. The anti-TROP2 single domain antibodies were diluted with HBS buffer to different concentrations, and the anti-TROP2 single domain antibodies were added at a flow rate of 30 μl/min, binding for 90 seconds, dissociating for 600 seconds, and the binding process between the anti-TROP2 single domain antibody and the antigen was observed. After rinsing with 10 mM glycine solution for chip regeneration, the next anti TROP2 single domain antibody assay was proceeded.

For test [3], the target named is T2, human TROP2-Fc protein antigen. The test can be described thus: ELISA, coated human TROP2-Fc, Kd calculated from absorbance.
Test [4] addresses T3, rhesus monkey TROP2-Fc antigen protein (rhesus monkey, UniProt A0A5F8AGB8 27-274).
T3 construct: not shown: Fc
T3 sequence: T2 sequence (looked up) with M36V, S67N, I204V
Put plainly: ELISA, coated rhesus monkey TROP2-Fc, Kd calculated from absorbance. Here is the method:
(§1) The ELISA plates were coated with TROP2-Fc antigen proteins from human, mouse, and rhesus monkey overnight at 4° C. The plates were washed for 4 times with PBS-T the next day, added with 1% BSA, and blocked at room temperature for 2 hours. The plates were washed for 4 times with PBS-T, added with the anti-TROP2 single domain antibodies diluted in gradient, and standing at 37° C. for 1 hour. The plates were washed for 4 times with PBS-T, added with mouse anti-His-HRP antibody, and standing at 37° C. for 1 hour. The plates were washed for 4 times with PBS-T, added with TMB soluble substrate, and standing at room temperature for 10 minutes.

In test [5] the target is T2, human TROP2-Fc protein antigen. The test can be described thus: ELISA, coated Fc protein of human TROP2 CRD + TY-1 + CPD, Kd calculated from absorbance. Here is the method:
as §1, with “Fc” for “TROP2-Fc”, “of different human TROP2 domains” for “from human, mouse, and rhesus monkey”, “minutes. […] The anti-TROP2 single domain antibodies of the present invention bind to different TROP2 domains.” for “minutes.”

Test [6] has as its target T4, Fc antigen protein of human TROP2 domain CPD (human, UniProt P09758 146-274, limits assumed).
T4 construct: domain: CPD; not shown: Fc
T4 sequence (looked up): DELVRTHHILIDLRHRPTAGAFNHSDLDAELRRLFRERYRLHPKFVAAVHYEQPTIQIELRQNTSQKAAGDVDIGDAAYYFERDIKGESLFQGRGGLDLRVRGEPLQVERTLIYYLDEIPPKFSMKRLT
Put plainly: ELISA, coated Fc protein of human TROP2 CPD, Kd calculated from absorbance. How it is done:
as §1, with “Fc” for “TROP2-Fc”, “of different human TROP2 domains” for “from human, mouse, and rhesus monkey”, “minutes. […] The anti-TROP2 single domain antibodies of the present invention bind to different TROP2 domains.” for “minutes.”

In test [7] the target is T5, Fc antigen protein of human TROP2 domains TY-1 + CPD (human, UniProt P09758 70-274, limits assumed).
T5 construct: domain: TY-1 + CPD; not shown: Fc
T5 sequence (looked up): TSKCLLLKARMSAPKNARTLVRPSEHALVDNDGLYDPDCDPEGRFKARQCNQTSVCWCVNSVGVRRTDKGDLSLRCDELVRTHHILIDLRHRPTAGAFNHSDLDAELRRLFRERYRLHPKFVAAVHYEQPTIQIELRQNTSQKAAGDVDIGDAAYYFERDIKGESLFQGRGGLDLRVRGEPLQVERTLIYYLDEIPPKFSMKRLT
Put plainly: ELISA, coated Fc protein of human TROP2 TY-1 + CPD, Kd calculated from absorbance. How it is done:
as §1, with “Fc” for “TROP2-Fc”, “of different human TROP2 domains” for “from human, mouse, and rhesus monkey”, “minutes. […] The anti-TROP2 single domain antibodies of the present invention bind to different TROP2 domains.” for “minutes.”

B1: MY1530-2-53 (VHH)
VHH: QVQLQESGGGSVQAGGSLRLSCAVSGLTSSTTCMGWFRQAPGKEREGVAVIRSSGETTAADSVKGRFTISRDNAKNTLSLQMTSLKPEDTAMYYCAAAWPYSGCLLPLSSGDFTYWGQGTQVTVSS
notes: Expressed in E. coli WK6 from vector pMECS, purified on a nickel column; also called MY1530-2-53 VHH; anti-TROP2 single domain antibody
For B1, in test [1], the binding result was “no binding”. Besides, the dissociation constant Kd – broadly, the equilibrium constant for the complex coming apart – in test [2] was 9.83 nM; in test [3] it was 4.23 nM; in test [4] it was 28.1 nM; in test [5] it was 4.23 nM. Further, in test [2], the off-rate constant (koff) (as a rule, the first-order rate constant of dissociation) turned out to be 0.00443 s⁻¹. The kon (usually the second-order rate constant of association) in test [2] was determined as 451000 M⁻¹ s⁻¹.

B2: MY1530-1-20 (VHH)
VHH: QVQLQESGGGSVLAGGSLRLSCTVSGSFVSSRSMAWFRQTPGKEREGVAAISQYGDPKYAGSVKGRFTMSRDNAKNTLLLQMNSLKPEDTAIYYCAAGEAWELATLSRSDYIYWGQGTQVTVSS
notes: Expressed in E. coli WK6 from vector pMECS, purified on a nickel column; also called MY1530-1-20 VHH; anti-TROP2 single domain antibody
B2: the binding result in test [1] was “no binding”. The Kd in test [2] is 0.35 nM; in test [3], 1.13 nM; in test [4], 2.33 nM; in test [5], 1.13 nM. Further, in test [2], the koff amounted to 0.000179 s⁻¹. The molecule also showed an on-rate constant (kon) in test [2] of 509000 M⁻¹ s⁻¹.

B3: MY1530-1-26 (VHH)
VHH: QVQLQESGGGSVQAGGSLRLSCVVSGYTTTRYSMAWFRQAPGKEREGVAGIDTDVLTTYKPSVEGRFTISRDSAKRTLYLQMNSLKPEDTAMYYCATGTGNFLALDPVWYNTWGQGTQVTVSS
notes: Expressed in E. coli WK6 from vector pMECS, purified on a nickel column; also called MY1530-1-26 VHH; anti-TROP2 single domain antibody
Consider B3, for which, in test [1], the binding result is recorded as “no binding”. For the same molecule, the equilibrium dissociation constant (Kd) in test [2] is 1.89 nM; in test [3] it was 4.86 nM; in test [4], 29.4 nM; in test [5], 4.86 nM. This molecule also registered a dissociation rate constant (koff) in test [2] of 0.00304 s⁻¹. This molecule also showed an association rate constant (kon) in test [2] of 1.61e+06 M⁻¹ s⁻¹.

B4: MY1530-5-17 (VHH)
VHH: QVQLQESGGGSVQPGGSLRLSCVVSGYTVSSVCMAWFRQAPGMERELVAGFYHSGGTYYGDSVKGRFTASQDNAKNTLYLQMNSLKPEDTATYYCARARYPSSACGTSPSNYNIWGQGTQVTVSS
notes: Expressed in E. coli WK6 from vector pMECS, purified on a nickel column; also called MY1530-5-17 VHH; anti-TROP2 single domain antibody
For the molecule B4, the binding result in test [1] is recorded as “no binding”. For the same molecule, the Kd was 0.27 nM in test [2]; 1.39 nM in test [3]; 1.78 nM in test [4]; 0.53 nM in test [6]; 0.53 nM in test [7]; 1.39 nM in test [5]. In test [2], the koff was 0.00011 s⁻¹. Also, the kon in test [2] came to 405000 M⁻¹ s⁻¹.

B5: MY1530-5-54 (VHH)
VHH: B4 VHH with V24A, V29A, M43K, F51Y
notes: Expressed in E. coli WK6 from vector pMECS, purified on a nickel column; also called MY1530-5-54 VHH; anti-TROP2 single domain antibody
Take B5: the binding result in test [1] is given as “no binding”. For the same molecule, the Kd in test [2] was 0.2 nM; in test [3] it was 1.28 nM; in test [4] it was 1.73 nM; in test [6], 0.53 nM; in test [7], 0.53 nM; in test [5] it was 1.28 nM. For the same molecule, in test [2], the koff was found to be 8.99e-05 s⁻¹. The on-rate (kon) in test [2] was found to be 449000 M⁻¹ s⁻¹.

B6: MY1530-4-22 (VHH)
VHH: B4 VHH with P14A, R19K
notes: Expressed in E. coli WK6 from vector pMECS, purified on a nickel column; also called MY1530-4-22 VHH; anti-TROP2 single domain antibody
In the case of B6, the binding result in test [1] was “no binding”. The equilibrium dissociation constant (Kd) in test [2] is 0.73 nM; in test [3], 1.29 nM; in test [4], 1.67 nM; in test [6] it was 1.02 nM; in test [7] it was 0.53 nM; in test [5], 1.29 nM. This molecule also displayed a koff in test [2] of 0.000187 s⁻¹. Further, the kon in test [2] stood at 257000 M⁻¹ s⁻¹.

B7: MY1530-4-28 (VHH)
VHH: QVQLQESGGGSVQAGGSLRLSCAASGFSVSTTWMHWVRQAPGKGLEWVSRIAINDHTFYAESVKGRFTMSTDNAKNTVYLQMTSLKPEDTAVYYCSPYSDYRIRGQGTQVTVSS
notes: Expressed in E. coli WK6 from vector pMECS, purified on a nickel column; also called MY1530-4-28 VHH; anti-TROP2 single domain antibody
Take B7: the binding result in test [1] is given as “no binding”. Further, the Kd is 4.89 nM in test [2], 1.2 nM in test [3], 1.38 nM in test [4] and 1.2 nM in test [5]. Besides, the koff in test [2] came to 0.000717 s⁻¹. Besides, in test [2], the kon is 147000 M⁻¹ s⁻¹.

B8: MY1530-6-1 (VHH)
VHH: QVQLQESGGGSVQAGGSLRLSCAASGFPYSSYSMGWFRQAPGKEREGVAAIYTGGGSTYYAGSVKGRFTISQEHATNTLYLQMNSLKPEDTAMYYCAANMVDNGVISGIQALGVRYYNYWGQGTQVTVSS
notes: Expressed in E. coli WK6 from vector pMECS, purified on a nickel column; also called MY1530-6-1 VHH; anti-TROP2 single domain antibody
With B8, in test [1], the binding result was “no binding”. For the same molecule, the Kd was 0.21 nM in test [2]; 1.51 nM in test [3]; 4.47 nM in test [4]; 2.14 nM in test [7]; 1.51 nM in test [5]. In test [2], this molecule registered a koff of 0.000227 s⁻¹. In test [2], the kon is 1.09e+06 M⁻¹ s⁻¹.
